Assay results taken from the supplement of paper PMC7125110.
± gives the standard error. For part of these data: Fewer inactive variants are shown than the library holds.

B1: glmS ribozyme (parent)
chain: AUAAAAGCGCCAGAACUACAGAAAUGUAGUUGACGAGGAGGAGGUUUAUCGAAUUUUCGGCGGAUGCCUCCAAA

Tests used:
Details in all cases: with glucosamine-6-phosphate
glucosamine-6-phosphate [1] = variants of: B1; test: kcat; higher = faster cleavage; RNA array
Outline: (§1)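 Over ~14 h at 37 °C, tiles were imaged as glucosamine-6-phosphate (40 μM to 10 mM) in HEPES/KCl/Mg(OAc)2 buffer flowed across sequenced MiSeq chips. The chips carried barcoded ribozyme variants transcribed in situ by E. coli RNA polymerase and tracked with a hybridised Cy3 probe. After normalisation to baseline and to non-cleaving reference variants, one- or two-exponential decay fits of per-tile medians gave kobs. kcat and KM followed from weighted Michaelis–Menten fits across concentrations.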

glucosamine-6-phosphate [2] = variants of: B1; test: KM; higher = weaker cofactor use; RNA array
Outline: as §1

glucosamine-6-phosphate [3] = variants of: B1; test: self-cleavage kobs at 640 uM GlcN6P; higher = faster cleavage; RNA array
Outline: as §1

glucosamine-6-phosphate [4] = variants of: B1; test: self-cleavage kobs at 2500 uM GlcN6P; higher = faster cleavage; RNA array
Outline: as §1

glucosamine-6-phosphate [5] = variants of: B1; test: self-cleavage kobs at 10000 uM GlcN6P; higher = faster cleavage; RNA array
Outline: as §1

glucosamine-6-phosphate [6] = variants of: B1; test: self-cleavage kobs at 40 uM GlcN6P; higher = faster cleavage; RNA array
Outline: as §1

glucosamine-6-phosphate [7] = variants of: B1; test: self-cleavage kobs at 160 uM GlcN6P; higher = faster cleavage; RNA array
Outline: as §1

Variant	kcat (glucosamine-6-phosphate [1]) [s⁻¹]	KM (glucosamine-6-phosphate [2]) [mM]	self-cleavage kobs at 640 uM GlcN6P (glucosamine-6-phosphate [3]) [s⁻¹]	self-cleavage kobs at 2500 uM GlcN6P (glucosamine-6-phosphate [4]) [s⁻¹]	self-cleavage kobs at 10000 uM GlcN6P (glucosamine-6-phosphate [5]) [s⁻¹]	self-cleavage kobs at 40 uM GlcN6P (glucosamine-6-phosphate [6]) [s⁻¹]	self-cleavage kobs at 160 uM GlcN6P (glucosamine-6-phosphate [7]) [s⁻¹]
C11U G41U	9.92e-05 ± 3.5e-06	0.74 ± 0.13	4.38e-05 ± 1.5e-05	8.28e-05 ± 1.7e-05	9.12e-05 ± 1e-05	–	–
C10A G51U C68G	4.94e-05 ± 1.5e-05	–	9.82e-05 ± 3.2e-05	–	3.4e-05 ± 1.6e-05	3.72e-05 ± 1.7e-05	5.32e-05 ± 2.5e-05
C10A C34U C67G C68G	4.25e-05 ± 6.7e-06	–	–	4.25e-05 ± 9.3e-06	–	–	4.7e-05 ± 8.5e-06
C11G G59A	0.000401 ± 1.7e-05	8.67 ± 0.56	2.81e-05 ± 1e-05	8.92e-05 ± 1.8e-05	0.000215 ± 3.6e-05	–	–
C10G C11A	< 1e-05	–	< 1e-05	–	–	< 1e-05	–
A12C G32C	2.92e-05 ± 1.3e-06	3.26 ± 0.5	–	–	2.2e-05 ± 6.6e-06	< 1e-05	–
A12C G32A	0.00031 ± 2.5e-05	3.11 ± 0.47	5.72e-05 ± 1e-05	0.000129 ± 1.8e-05	0.000244 ± 3.1e-05	–	–
C10G C50U	< 1e-05	–	–	–	< 1e-05	< 1e-05	–
G7U G37C	< 1e-05	–	< 1e-05	–	–	< 1e-05	–
C11U G59A	0.0105 ± 0.0043	–	0.00203 ± 0.0004	0.00582 ± 0.0018	0.0116 ± 0.0016	0.000335 ± 3.7e-05	0.0014 ± 0.00027
C11A A15C C70A	4.15e-05 ± 2.7e-06	–	–	–	4.27e-05 ± 1.9e-05	–	–
A12C A52G	0.000882 ± 0.00021	2.29 ± 0.88	0.000216 ± 2.4e-05	0.000359 ± 6.3e-05	0.00082 ± 0.00011	2.37e-05 ± 1e-05	4.98e-05 ± 1.3e-05
C11U C71U	0.00111 ± 0.0002	1.03 ± 0.32	0.000418 ± 7.1e-05	0.000796 ± 0.00014	0.00102 ± 0.0002	0.000116 ± 4.3e-05	0.000143 ± 2.6e-05
G7C A36G G37U A52U U57C G63U	< 1e-05	–	–	< 1e-05	–	–	–
C10A C71U	< 1e-05	–	–	–	–	–	–
C10G A52G U56A C70A	1.68e-05 ± 4.2e-06	–	–	–	–	–	–
C10A U65A	1.06e-05 ± 3e-06	–	–	–	–	–	–
C11U C50A	< 1e-05	–	–	–	< 1e-05	–	< 1e-05
C10A C50A	2e-05 ± 5.5e-06	–	–	–	–	–	–
C8U C61A	< 1e-05	–	–	–	–	–	–
C10U A12U	0.000153 ± 2.3e-05	3.2 ± 1.2	1.92e-05 ± 6e-06	8.4e-05 ± 1.2e-05	0.000113 ± 9e-06	–	–
G7A U55A	8.93e-05 ± 9.4e-06	–	–	–	–	–	–

Variant	kcat (glucosamine-6-phosphate [1]) [s⁻¹]	KM (glucosamine-6-phosphate [2]) [mM]	self-cleavage kobs at 640 uM GlcN6P (glucosamine-6-phosphate [3]) [s⁻¹]	self-cleavage kobs at 2500 uM GlcN6P (glucosamine-6-phosphate [4]) [s⁻¹]	self-cleavage kobs at 10000 uM GlcN6P (glucosamine-6-phosphate [5]) [s⁻¹]	self-cleavage kobs at 40 uM GlcN6P (glucosamine-6-phosphate [6]) [s⁻¹]	self-cleavage kobs at 160 uM GlcN6P (glucosamine-6-phosphate [7]) [s⁻¹]
C10U C68U	1.42e-05 ± 6.5e-06	–	–	–	–	< 1e-05	–
C10U G32A	2.81e-05 ± 1.1e-06	–	–	2.53e-05 ± 9.9e-06	2.81e-05 ± 7.9e-06	< 1e-05	–
C11U C70G C71U	5.18e-05 ± 1e-05	–	7.99e-05 ± 2.7e-05	–	5.18e-05 ± 1.3e-05	–	–
C11U G29C C50G C68G	7.23e-05 ± 1.9e-05	–	7.71e-05 ± 2.1e-05	9.67e-05 ± 1.5e-05	5.44e-05 ± 1e-05	–	0.000134 ± 2.7e-05
C10U U54C	2.54e-05 ± 7.7e-06	–	–	3.09e-05 ± 1.2e-05	–	< 1e-05	–
C10U U54G	< 1e-05	–	–	–	–	< 1e-05	–
A12C G13C	6.35e-05 ± 2.1e-06	1.03 ± 0.24	–	4.89e-05 ± 2.3e-05	5.73e-05 ± 7.8e-06	–	–
G9A G13C U30G G63U U69G	< 1e-05	–	–	< 1e-05	–	< 1e-05	–
C10G A14G G32C G37A C67G	2.2e-05 ± 6.4e-06	–	–	–	–	–	–
C10G C70A	< 1e-05	–	–	–	< 1e-05	–	–
C11A C61G	1.14e-05 ± 3.7e-06	–	–	–	–	< 1e-05	–
A12C C61U	1.24e-05 ± 3.6e-06	–	–	–	–	< 1e-05	–
C11G C68G	2.12e-05 ± 7.1e-06	–	–	–	–	–	–
G7A U69C	< 1e-05	–	–	–	–	–	< 1e-05
A12C U30C	0.00413 ± 0.0012	3.85 ± 1.5	0.000707 ± 9.2e-05	0.00145 ± 0.0002	0.00306 ± 0.00028	6.11e-05 ± 7.7e-06	0.000121 ± 2e-05
C10A G13A	< 1e-05	–	–	–	–	< 1e-05	< 1e-05
C11A U54C	0.000278 ± 3.7e-05	4.64 ± 1.1	3.08e-05 ± 1e-05	0.00011 ± 2.9e-05	0.000186 ± 3.4e-05	–	–
C11A G32U	5.22e-05 ± 2.5e-05	–	–	–	–	< 1e-05	< 1e-05
C10A G60U	0.000974 ± 0.00015	1.66 ± 0.47	0.000243 ± 3.1e-05	0.000514 ± 8.6e-05	0.000886 ± 8.3e-05	3.82e-05 ± 7.9e-06	8.97e-05 ± 1.6e-05
C10A G60C	< 1e-05	–	< 1e-05	–	–	–	–
C11A G51U U65C C68U	3.35e-05 ± 9e-06	–	–	–	–	–	–
